Results taken from US20130122013A1 (Eli Lilly, published 2013).
Where a chain is given by its changes, count along the chain named. Values belong to the molecule of their own block, whether it stands above or below them.

How the values were obtained:
[1] = target: T1, human FPN1 C-terminally fused with GFP (human, UniProt Q9NP59 1-571, GFP reporter fused to the C-terminus ("FPN1 is C-terminally fused with GFP"). It is left out because the patent gives no letters for it.); experiment: inhibition of binding of 30 nM biotinylated hepcidin to FPN-GFP/293 cells, ELISA of lysate; control antibody at 0.048 uM; mean
T1 sequence: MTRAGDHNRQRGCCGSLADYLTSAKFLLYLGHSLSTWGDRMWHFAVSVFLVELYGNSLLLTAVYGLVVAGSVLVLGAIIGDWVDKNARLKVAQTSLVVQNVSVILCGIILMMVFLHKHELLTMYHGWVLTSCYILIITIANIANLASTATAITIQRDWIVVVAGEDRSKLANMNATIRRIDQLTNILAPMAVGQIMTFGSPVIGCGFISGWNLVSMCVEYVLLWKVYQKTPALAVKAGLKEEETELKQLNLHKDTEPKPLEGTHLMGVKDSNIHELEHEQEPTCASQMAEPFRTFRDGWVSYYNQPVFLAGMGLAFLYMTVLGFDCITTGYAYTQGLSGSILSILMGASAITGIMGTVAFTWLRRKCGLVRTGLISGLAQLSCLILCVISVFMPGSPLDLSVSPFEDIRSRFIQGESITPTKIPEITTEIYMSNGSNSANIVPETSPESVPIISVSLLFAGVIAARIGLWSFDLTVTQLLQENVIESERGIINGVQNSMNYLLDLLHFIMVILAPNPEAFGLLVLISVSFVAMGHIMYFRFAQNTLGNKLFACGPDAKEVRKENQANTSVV

[2] = target: T1, human FPN1 C-terminally fused with GFP; experiment: inhibition of binding of 30 nM biotinylated hepcidin to FPN-GFP/293 cells, ELISA of lysate; control antibody at 1.2 uM; mean
[3] = target: T1, human FPN1 C-terminally fused with GFP; experiment: inhibition of binding of 30 nM biotinylated hepcidin to FPN-GFP/293 cells, ELISA of lysate; control antibody at 0.24 uM; mean
human ferroportin 1 [4] = target: T2, human ferroportin 1 (human, UniProt Q9NP59 1-571); experiment: cell-based or functional assay
T2 sequence: T1 sequence

[5] = target: T1, human FPN1 C-terminally fused with GFP; experiment: inhibition of binding of 30 nM biotinylated hepcidin to FPN-GFP/293 cells, ELISA of lysate; control antibody at 6.0 uM; mean
human ferroportin 1 [6] = target: T2, human ferroportin 1; experiment: inhibition of binding of 30 nM biotinylated hepcidin to FPN/293 cells, ELISA of lysate; control antibody at 2000 nM; mean
human ferroportin 1 [7] = target: T2, human ferroportin 1; experiment: inhibition of binding of 30 nM biotinylated hepcidin to FPN/293 cells, ELISA of lysate; control antibody at 500 nM; mean
human ferroportin 1 [8] = target: T2, human ferroportin 1; experiment: inhibition of binding of 30 nM biotinylated hepcidin to FPN/293 cells, ELISA of lysate; control antibody at 125 nM; mean
human ferroportin 1 [9] = target: T2, human ferroportin 1; experiment: inhibition of binding of 30 nM biotinylated hepcidin to FPN/293 cells, ELISA of lysate; control antibody at 31.25 nM; mean
human ferroportin 1 [10] = target: T2, human ferroportin 1; experiment: inhibition of binding of 30 nM biotinylated hepcidin to FPN/293 cells, ELISA of lysate; control antibody at 7.8 nM; mean
[11] = target: T1, human FPN1 C-terminally fused with GFP; experiment: cell-based or functional assay
[12] = target: T1, human FPN1 C-terminally fused with GFP; experiment: SPR, Biacore T100, 25 C, 1:1 model; FPN1-GFP captured from cell lysate on rabbit anti-GFP antibody, Mab injected
Method: (§1) The affinities of FPN1 binding Fabs and Mabs may be determined on Biacore T100 and using 1:1 binding model in the Biacore T100 evaluation software (BIAcore® AB, Upsala, Sweden). […] FPN1 is C-terminally fused with GFP. Expression of FPN1-GFP is induced by 1-10 ng/mL doxycycline for 1-24 hours. Induced cells are harvested by scraping off from flasks and then washed with 1×PBS. Cell pellets can be stored at −80° C. before use. About five million induced cells are resuspended in 10 mM phosphate buffer with 0.2% Tween-20 and protease inhibitors, e.g., Complete™ Protease Inhibitor Cocktail Tablet (Roche Diagnostics Corp., Indianapolis, Ind.). Three cycles of freeze/thaw/sonication are used to lyse the cells. The lysate is diluted two-fold with Biacore running buffer and centrifuged to remove debris.
(§2) On Biacore T100, rabbit anti-GFP antibody or goat anti-GFP antibody is immobilized onto flow cell 1 to 4 of a CMS chip at 5000-15000 Rus. FPN1-GFP is captured onto flow cell 2, 3, or 4 from the lysate of induced cells. Flow cell 1 is used as reference. Then all flow cells are injected with different concentrations of antibodies to evaluate the binding and kinetics.

[13] = target: T1, human FPN1 C-terminally fused with GFP; experiment: cell-based or functional assay; remark: listed apart in the source
peptide 060719Z = target: T3, peptide 060719Z (human); experiment: dot blot: peptide spotted on nitrocellulose, probed with Mab 34A9, IR700-labeled goat anti-mouse detection
T3 peptide: GGSPFEDIRSRFIQGC
Method: (§3) For each peptide, 3 μl of 1-5 μg/mL peptide is spotted onto a piece of nitrocellulose membrane and air dried. The membrane is blocked with blocking buffer (e.g., PBS containing 1% BSA), then incubated with 3-5 μg/mL FPN1 antibody in blocking buffer at room temperature for an hour. The membrane is washed three times, 5 min each, with 1×PBST (10 mM sodium phosphate, 150 mM NaCl, 0.1% Tween-20, pH 7.4) before it is incubated with IR700-labeled-Goat-anti-Mouse antibody according to manufacturer's protocol (LiCor, Inc; Lincoln, Nebr.). The membrane is washed three times, five minutes each, with 1×PBST, is imaged on Odyssey imaging system and Odyssey software (LiCor, Inc).

peptide 0708L4C = target: T4, peptide 0708L4C (human); experiment: as above
T4 peptide: GGEDIRSRFIQGESITGC
Method: as §3

peptide FpnE3a = target: T5, peptide FpnE3a (human); experiment: as above
T5 peptide: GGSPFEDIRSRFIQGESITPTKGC
Method: as §3

peptide 0708L4D = target: T6, peptide 0708L4D (human); experiment: as above
T6 peptide: GGRSRFIQGESITPTKGC
Method: as §3

[14] = target: T1, human FPN1 C-terminally fused with GFP; experiment: SPR, Biacore T100, 37 C, 1:1 model; FPN1-GFP captured from cell lysate on goat anti-GFP antibody, Fab injected; n = 4
Method: as §1, §2

[15] = target: T1, human FPN1 C-terminally fused with GFP; experiment: SPR, Biacore T100, 37 C, 1:1 model; FPN1-GFP captured from cell lysate on rabbit anti-GFP antibody, Fab injected
Method: as §1, §2

[16] = target: T1, human FPN1 C-terminally fused with GFP; experiment: SPR, Biacore T100, 37 C; KD of Fab 1G9 against KD of Fab 34A9 (Table 4(a))
From the text: The affinities of FPN1 binding Fabs and Mabs may be determined on Biacore T100 and using 1:1 binding model in the Biacore T100 evaluation software (BIAcore® AB, Upsala, Sweden). Briefly, the T-REx system, a commercially available tetracycline-regulated expression system without viral transactivators (Invitrogen, Carlsbad, Calif.) is used for stable cell line generation in T-Rex HEK 293 cells. All growth conditions are described in the T-REx manual provided by Invitrogen. FPN1 is C-terminally fused with GFP. Expression of FPN1-GFP is induced by 1-10 ng/mL doxycycline for 1-24 hours. Induced cells are harvested by scraping off from flasks and then washed with 1×PBS. Cell pellets can be stored at −80° C. before use. About five million induced cells are resuspended in 10 mM phosphate buffer with 0.2% Tween-20 and protease inhibitors, e.g., Complete™ Protease Inhibitor Cocktail Tablet (Roche Diagnostics Corp., Indianapolis, Ind.). Three cycles of freeze/thaw/sonication are used to lyse the cells. The lysate is diluted two-fold with Biacore running buffer and centrifuged to remove debris.
On Biacore T100, rabbit anti-GFP antibody or goat anti-GFP antibody is immobilized onto flow cell 1 to 4 of a CMS chip at 5000-15000 Rus. FPN1-GFP is captured onto flow cell 2, 3, or 4 from the lysate of induced cells. Flow cell 1 is used as reference. […]

Molecule: control IgG (antibody)
% Inhibition (human ferroportin 1 [6]): -2.5%
% Inhibition (human ferroportin 1 [7]): -0.7%
% Inhibition (human ferroportin 1 [8]): 1.9%
% Inhibition (human ferroportin 1 [9]): 7.9%
% Inhibition (human ferroportin 1 [10]): 2.5%

B2: Fab 1G9 (Fab, V domains shown)
VH: QVQLKQSGAELVRPGTSVKVSCKASGYAFTSFLIEWLKQRPGQGLEWIGTINPRTGGTKYNEKFRGKATLTADKSSSTAYMQLNSLTSDDSAVYFCVREFFDYWGQGTSLTVSS
VL: ETTVTQSPSYLAASPGETITINCRASKSISKYLAWFQEKPGKTNKLLIYAGSKLHSGIPSRFSGSGSGTDFTLTISSLEPEDFAMYYCFQHNEYPYTFGGGTKLELK
notes: also called mouse 1G9; mouse Fab 1G9
Kd [14]: 2.9 nM
koff [14]: 0.000497 s⁻¹
kon [14]: 173000 M⁻¹ s⁻¹
Kd [15]: 7.71 nM
koff [15]: 0.000897 s⁻¹
kon [15]: 127000 M⁻¹ s⁻¹
fold improvement in binding affinity over mouse Fab 34A9 [16]: ~5 fold

Next, values leading:

% Inhibition [1]: -11%
% Inhibition [2]: 0.5%
% Inhibition [3]: -4%
% Inhibition of hepcidin-induced ferritin increase in Caco-2 cells, 6.25 µg/mL (human ferroportin 1 [4]): 0%
% Inhibition of hepcidin-induced ferritin increase in Caco-2 cells, 12.5 µg/mL (human ferroportin 1 [4]): 0%
% Inhibition of hepcidin-induced ferritin increase in Caco-2 cells, 25 µg/mL (human ferroportin 1 [4]): 7.2%
% Inhibition of hepcidin-induced ferritin increase in Caco-2 cells, 50 µg/mL (human ferroportin 1 [4]): 0%
% Inhibition of hepcidin-induced ferritin increase in Caco-2 cells, 100 µg/mL (human ferroportin 1 [4]): 3.5%
% Inhibition of hepcidin-induced ferritin increase in Caco-2 cells, 200 µg/mL (human ferroportin 1 [4]): 11.6%
Ferritin (ng)/protein (µg) in hepcidin-treated Caco-2 cells, 6.25 µg/mL (ng ferritin/µg protein) (human ferroportin 1 [4]): 10.4
Ferritin (ng)/protein (µg) in hepcidin-treated Caco-2 cells, 12.5 µg/mL (ng ferritin/µg protein) (human ferroportin 1 [4]): 10
Ferritin (ng)/protein (µg) in hepcidin-treated Caco-2 cells, 25 µg/mL (ng ferritin/µg protein) (human ferroportin 1 [4]): 9.6
Ferritin (ng)/protein (µg) in hepcidin-treated Caco-2 cells, 50 µg/mL (ng ferritin/µg protein) (human ferroportin 1 [4]): 10.1
Ferritin (ng)/protein (µg) in hepcidin-treated Caco-2 cells, 100 µg/mL (ng ferritin/µg protein) (human ferroportin 1 [4]): 9.78
Ferritin (ng)/protein (µg) in hepcidin-treated Caco-2 cells, 200 µg/mL (ng ferritin/µg protein) (human ferroportin 1 [4]): 9.4
% Inhibition [5]: -3.4%
Molecule: Mouse IgG1, a negative control (antibody)

Relative IC50 of inhibition of hepcidin-25-induced internalization and degradation of FPN1-GFP [11]: 58.9 nM
Top % Inhibition of hepcidin-25-induced internalization and degradation of FPN1-GFP [11]: 55.2%
Kd [12]: 1.18 nM
koff [12]: 8.16e-05 s⁻¹
kon [12]: 69000 M⁻¹ s⁻¹
Percent (%) Inhibition of Mature Human Hepcidin-induced Internalization and Degradation, Mab at 7.4 nM [13]: 4.8%
Percent (%) Inhibition of Mature Human Hepcidin-induced Internalization and Degradation, Mab at 22 nM [13]: 14.1%
Percent (%) Inhibition of Mature Human Hepcidin-induced Internalization and Degradation, Mab at 67 nM [13]: 23.6%
Percent (%) Inhibition of Mature Human Hepcidin-induced Internalization and Degradation, Mab at 200 nM [13]: 30.8%
Percent (%) Inhibition of Mature Human Hepcidin-induced Internalization and Degradation, Mab at 600 nM [13]: 39%
binding result (peptide 060719Z): binds
binding result (peptide 0708L4C): binds
binding result (peptide FpnE3a): binds
binding result (peptide 0708L4D): binds
B1: Mab 34A9 (antibody, mouse IgG1, kappa, V domains shown)
VH: B2 VH with S31N, R54E
VL: ETTVTQSPSYLAASPGETITINCRASKSISKYLAWFQEKPGKTNKLLIYAGSTLHSGIPSRFSGSGSGTDFTLTISSLEPEDFAMYYCQQHNEYPYTFGGGTKLELKR
notes: Mouse monoclonal antibody against human FPN1; also called mouse 34A9; mouse Mab 34A9
